# According to patent US20240270846A1 (published 2024):
# Molecular target: T1, CD3 epsilon homodimer protein (UniProt P07766 23-126)
# T1 construct: construct not described; homodimer as printed; also called CD3 (CD3 epsilon)
# Assay: SPR Biacore T200, CD3 epsilon homodimer immobilized; vs unaltered GLS3000;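 further: antibody variants flowed as analyte over CD3 epsilon homodimer amine-coupled to a CM4 chip, at 25 °C in HBS-EP+ running buffer, fitted with Biacore T200 Evaluation Software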
# T1 sequence (P07766 23-126): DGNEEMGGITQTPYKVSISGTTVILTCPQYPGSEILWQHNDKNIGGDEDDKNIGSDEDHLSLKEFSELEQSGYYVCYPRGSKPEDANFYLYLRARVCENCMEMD
row,Binder,KD ratio to GLS3000 (Affinity up)
1,"GLS3000 S25E (Kabat) L chain altered form, one-arm antibody with CE115HA000 (antibody, human IgG1, kappa, L234A L235A, N297A, name in Kabat numbering, one-arm antibody) heavy: QVQLVESGGGVVQPGRSLRLSCAASGFTFSNAWMHWVRQAPGKGLEWVAQIKAKSNNYATYYAESVKGRFTISRDDSKNSLYLQMNSLKTEDTAVYYCRYVHYGAYYGVDAWGQGTTVTVSSASTKGPSVFPLAPSSKSTSGGTAALGCLVKDYFPEPVTVSWNSGALTSGVHTFPAVLQSSGLYSLSSVVTVPSSSLGTQTYICNVNHKPSNTKVDKKVEPKSCDKTHTCPPCPAPEAAGGPSVFLFPPKPKDTLMISRTPEVTCVVVDVSHEDPEVKFNWYVDGVEVHNAKTKPREEQYASTYRVVSVLTVLHQDWLNGKEYKCKVSNKALPAPIEKTISKAKGQPREPQVYTLPPSRCELTKNQVSLSCAVKGFYPSDIAVEWESNGQPENNYKTTPPVLDSDGSFFLVSKLTVDKSRWQQGNVFSCSVMHEALHNHYTQKSLSLSPDYKDDDDK EPKSSDKTHTCPPCPAPELLGGPSVFLFPPKPKDTLMISRTPEVTCVVVDVSHEDPEVKFNWYVDGVEVHNAKTKPREEQYNSTYRVVSVLTVLHQDWLNGKEYKCKVSNKALPAPIEKTISKAKGQPREPQVCTLPPSRDELTKNQVSLWCLVKGFYPSDIAVEWESNGQPENNYKTTPPVLDSDGSFFLYSKLTVDKSRWQQGNVFSCSVMHEALHNRYTQKSLSLSP light: DIVMTQSPLSLPVTPGEPASISCRESQSLVHSNRNTYLHWYQQKPGQAPRLLIYKVSNRFSGVPDRFSGSGSGTDFTLKISRVEAEDVGVYYCGQGTQVPYTFGQGTKLEIKRTVAAPSVFIFPPSDEQLKSGTASVVCLLNNFYPREAKVQWKVDNALQSGNSQESVTEQDSKDSTYSLSSTLTLSKADYEKHKVYACEVTHQGLSSPVTKSFNRGEC",6.54
2,"GLS3000 S25M (Kabat) L chain altered form, one-arm antibody with CE115HA000 (antibody, human IgG1, kappa, L234A L235A, N297A, name in Kabat numbering, one-arm antibody) heavy: QVQLVESGGGVVQPGRSLRLSCAASGFTFSNAWMHWVRQAPGKGLEWVAQIKAKSNNYATYYAESVKGRFTISRDDSKNSLYLQMNSLKTEDTAVYYCRYVHYGAYYGVDAWGQGTTVTVSSASTKGPSVFPLAPSSKSTSGGTAALGCLVKDYFPEPVTVSWNSGALTSGVHTFPAVLQSSGLYSLSSVVTVPSSSLGTQTYICNVNHKPSNTKVDKKVEPKSCDKTHTCPPCPAPEAAGGPSVFLFPPKPKDTLMISRTPEVTCVVVDVSHEDPEVKFNWYVDGVEVHNAKTKPREEQYASTYRVVSVLTVLHQDWLNGKEYKCKVSNKALPAPIEKTISKAKGQPREPQVYTLPPSRCELTKNQVSLSCAVKGFYPSDIAVEWESNGQPENNYKTTPPVLDSDGSFFLVSKLTVDKSRWQQGNVFSCSVMHEALHNHYTQKSLSLSPDYKDDDDK EPKSSDKTHTCPPCPAPELLGGPSVFLFPPKPKDTLMISRTPEVTCVVVDVSHEDPEVKFNWYVDGVEVHNAKTKPREEQYNSTYRVVSVLTVLHQDWLNGKEYKCKVSNKALPAPIEKTISKAKGQPREPQVCTLPPSRDELTKNQVSLWCLVKGFYPSDIAVEWESNGQPENNYKTTPPVLDSDGSFFLYSKLTVDKSRWQQGNVFSCSVMHEALHNRYTQKSLSLSP light: DIVMTQSPLSLPVTPGEPASISCRMSQSLVHSNRNTYLHWYQQKPGQAPRLLIYKVSNRFSGVPDRFSGSGSGTDFTLKISRVEAEDVGVYYCGQGTQVPYTFGQGTKLEIKRTVAAPSVFIFPPSDEQLKSGTASVVCLLNNFYPREAKVQWKVDNALQSGNSQESVTEQDSKDSTYSLSSTLTLSKADYEKHKVYACEVTHQGLSSPVTKSFNRGEC",1.6
3,"GLS3000 S25T (Kabat) L chain altered form, one-arm antibody with CE115HA000 (antibody, human IgG1, kappa, L234A L235A, N297A, name in Kabat numbering, one-arm antibody) heavy: QVQLVESGGGVVQPGRSLRLSCAASGFTFSNAWMHWVRQAPGKGLEWVAQIKAKSNNYATYYAESVKGRFTISRDDSKNSLYLQMNSLKTEDTAVYYCRYVHYGAYYGVDAWGQGTTVTVSSASTKGPSVFPLAPSSKSTSGGTAALGCLVKDYFPEPVTVSWNSGALTSGVHTFPAVLQSSGLYSLSSVVTVPSSSLGTQTYICNVNHKPSNTKVDKKVEPKSCDKTHTCPPCPAPEAAGGPSVFLFPPKPKDTLMISRTPEVTCVVVDVSHEDPEVKFNWYVDGVEVHNAKTKPREEQYASTYRVVSVLTVLHQDWLNGKEYKCKVSNKALPAPIEKTISKAKGQPREPQVYTLPPSRCELTKNQVSLSCAVKGFYPSDIAVEWESNGQPENNYKTTPPVLDSDGSFFLVSKLTVDKSRWQQGNVFSCSVMHEALHNHYTQKSLSLSPDYKDDDDK EPKSSDKTHTCPPCPAPELLGGPSVFLFPPKPKDTLMISRTPEVTCVVVDVSHEDPEVKFNWYVDGVEVHNAKTKPREEQYNSTYRVVSVLTVLHQDWLNGKEYKCKVSNKALPAPIEKTISKAKGQPREPQVCTLPPSRDELTKNQVSLWCLVKGFYPSDIAVEWESNGQPENNYKTTPPVLDSDGSFFLYSKLTVDKSRWQQGNVFSCSVMHEALHNRYTQKSLSLSP light: DIVMTQSPLSLPVTPGEPASISCRTSQSLVHSNRNTYLHWYQQKPGQAPRLLIYKVSNRFSGVPDRFSGSGSGTDFTLKISRVEAEDVGVYYCGQGTQVPYTFGQGTKLEIKRTVAAPSVFIFPPSDEQLKSGTASVVCLLNNFYPREAKVQWKVDNALQSGNSQESVTEQDSKDSTYSLSSTLTLSKADYEKHKVYACEVTHQGLSSPVTKSFNRGEC",0.75
4,"GLS3000 S25P (Kabat) L chain altered form, one-arm antibody with CE115HA000 (antibody, human IgG1, kappa, L234A L235A, N297A, name in Kabat numbering, one-arm antibody) heavy: QVQLVESGGGVVQPGRSLRLSCAASGFTFSNAWMHWVRQAPGKGLEWVAQIKAKSNNYATYYAESVKGRFTISRDDSKNSLYLQMNSLKTEDTAVYYCRYVHYGAYYGVDAWGQGTTVTVSSASTKGPSVFPLAPSSKSTSGGTAALGCLVKDYFPEPVTVSWNSGALTSGVHTFPAVLQSSGLYSLSSVVTVPSSSLGTQTYICNVNHKPSNTKVDKKVEPKSCDKTHTCPPCPAPEAAGGPSVFLFPPKPKDTLMISRTPEVTCVVVDVSHEDPEVKFNWYVDGVEVHNAKTKPREEQYASTYRVVSVLTVLHQDWLNGKEYKCKVSNKALPAPIEKTISKAKGQPREPQVYTLPPSRCELTKNQVSLSCAVKGFYPSDIAVEWESNGQPENNYKTTPPVLDSDGSFFLVSKLTVDKSRWQQGNVFSCSVMHEALHNHYTQKSLSLSPDYKDDDDK EPKSSDKTHTCPPCPAPELLGGPSVFLFPPKPKDTLMISRTPEVTCVVVDVSHEDPEVKFNWYVDGVEVHNAKTKPREEQYNSTYRVVSVLTVLHQDWLNGKEYKCKVSNKALPAPIEKTISKAKGQPREPQVCTLPPSRDELTKNQVSLWCLVKGFYPSDIAVEWESNGQPENNYKTTPPVLDSDGSFFLYSKLTVDKSRWQQGNVFSCSVMHEALHNRYTQKSLSLSP light: DIVMTQSPLSLPVTPGEPASISCRPSQSLVHSNRNTYLHWYQQKPGQAPRLLIYKVSNRFSGVPDRFSGSGSGTDFTLKISRVEAEDVGVYYCGQGTQVPYTFGQGTKLEIKRTVAAPSVFIFPPSDEQLKSGTASVVCLLNNFYPREAKVQWKVDNALQSGNSQESVTEQDSKDSTYSLSSTLTLSKADYEKHKVYACEVTHQGLSSPVTKSFNRGEC",0.79
5,"GLS3000 S25I (Kabat) L chain altered form, one-arm antibody with CE115HA000 (antibody, human IgG1, kappa, L234A L235A, N297A, name in Kabat numbering, one-arm antibody) heavy: QVQLVESGGGVVQPGRSLRLSCAASGFTFSNAWMHWVRQAPGKGLEWVAQIKAKSNNYATYYAESVKGRFTISRDDSKNSLYLQMNSLKTEDTAVYYCRYVHYGAYYGVDAWGQGTTVTVSSASTKGPSVFPLAPSSKSTSGGTAALGCLVKDYFPEPVTVSWNSGALTSGVHTFPAVLQSSGLYSLSSVVTVPSSSLGTQTYICNVNHKPSNTKVDKKVEPKSCDKTHTCPPCPAPEAAGGPSVFLFPPKPKDTLMISRTPEVTCVVVDVSHEDPEVKFNWYVDGVEVHNAKTKPREEQYASTYRVVSVLTVLHQDWLNGKEYKCKVSNKALPAPIEKTISKAKGQPREPQVYTLPPSRCELTKNQVSLSCAVKGFYPSDIAVEWESNGQPENNYKTTPPVLDSDGSFFLVSKLTVDKSRWQQGNVFSCSVMHEALHNHYTQKSLSLSPDYKDDDDK EPKSSDKTHTCPPCPAPELLGGPSVFLFPPKPKDTLMISRTPEVTCVVVDVSHEDPEVKFNWYVDGVEVHNAKTKPREEQYNSTYRVVSVLTVLHQDWLNGKEYKCKVSNKALPAPIEKTISKAKGQPREPQVCTLPPSRDELTKNQVSLWCLVKGFYPSDIAVEWESNGQPENNYKTTPPVLDSDGSFFLYSKLTVDKSRWQQGNVFSCSVMHEALHNRYTQKSLSLSP light: DIVMTQSPLSLPVTPGEPASISCRISQSLVHSNRNTYLHWYQQKPGQAPRLLIYKVSNRFSGVPDRFSGSGSGTDFTLKISRVEAEDVGVYYCGQGTQVPYTFGQGTKLEIKRTVAAPSVFIFPPSDEQLKSGTASVVCLLNNFYPREAKVQWKVDNALQSGNSQESVTEQDSKDSTYSLSSTLTLSKADYEKHKVYACEVTHQGLSSPVTKSFNRGEC",0.67
6,"GLS3000 S25L (Kabat) L chain altered form, one-arm antibody with CE115HA000 (antibody, human IgG1, kappa, L234A L235A, N297A, name in Kabat numbering, one-arm antibody) heavy: QVQLVESGGGVVQPGRSLRLSCAASGFTFSNAWMHWVRQAPGKGLEWVAQIKAKSNNYATYYAESVKGRFTISRDDSKNSLYLQMNSLKTEDTAVYYCRYVHYGAYYGVDAWGQGTTVTVSSASTKGPSVFPLAPSSKSTSGGTAALGCLVKDYFPEPVTVSWNSGALTSGVHTFPAVLQSSGLYSLSSVVTVPSSSLGTQTYICNVNHKPSNTKVDKKVEPKSCDKTHTCPPCPAPEAAGGPSVFLFPPKPKDTLMISRTPEVTCVVVDVSHEDPEVKFNWYVDGVEVHNAKTKPREEQYASTYRVVSVLTVLHQDWLNGKEYKCKVSNKALPAPIEKTISKAKGQPREPQVYTLPPSRCELTKNQVSLSCAVKGFYPSDIAVEWESNGQPENNYKTTPPVLDSDGSFFLVSKLTVDKSRWQQGNVFSCSVMHEALHNHYTQKSLSLSPDYKDDDDK EPKSSDKTHTCPPCPAPELLGGPSVFLFPPKPKDTLMISRTPEVTCVVVDVSHEDPEVKFNWYVDGVEVHNAKTKPREEQYNSTYRVVSVLTVLHQDWLNGKEYKCKVSNKALPAPIEKTISKAKGQPREPQVCTLPPSRDELTKNQVSLWCLVKGFYPSDIAVEWESNGQPENNYKTTPPVLDSDGSFFLYSKLTVDKSRWQQGNVFSCSVMHEALHNRYTQKSLSLSP light: DIVMTQSPLSLPVTPGEPASISCRLSQSLVHSNRNTYLHWYQQKPGQAPRLLIYKVSNRFSGVPDRFSGSGSGTDFTLKISRVEAEDVGVYYCGQGTQVPYTFGQGTKLEIKRTVAAPSVFIFPPSDEQLKSGTASVVCLLNNFYPREAKVQWKVDNALQSGNSQESVTEQDSKDSTYSLSSTLTLSKADYEKHKVYACEVTHQGLSSPVTKSFNRGEC",4.93
